# Measurements from a protein production outcome set (Wang et al. 2014).
# Test: label from the status in PepcDB records
row,Sequence,protein production
1,MEGLAAFIIITLMIIIVPGPDFFVVMKNSITSGKGNGAMAALGITSGHVVYSLLAVFGIIFILANMYYVFVTIKILGAIYLIYLGIRSIISARQSMNFSTSQLKAQRITYLSSYRQGFFSTILNPKALLYYISILPQFLSTGEAVTSQIAILTAIVTTVILLWFIFCVYIFQYIKLLFTNRKIKAIFDYTVGAILIGLSLNLLLSKSS,failed
2,MLVGNYDATLVLTSLFVAILASYTALGMAGRVAASRGVAARVWLGGGAFAMGLGIWSMHFIGMLAFSLPIPLGYDVALTVASMALAVACSAFALWVVTRATLPWRRLAGAAALMGTGIAAMHYTGMAAMRMHPAIEYSPALFMLSVAVAIVASGAALWITHALRHNRPGAPAYRICAAIVMGLAIVGMHYTGMAAANFPQGSVCMAANSGISAGWLAVSTAAVTLAVLAVALVVAVLDTRLETRTSALNASLAQANEELVQMALHDTLTKLPNRALLDERLKQAIIRATAAGRGFSLLFIDLDGFKAINDAYGHGAGDLLLVEMAQRIKRAMRPQDCVARLGGDEFVVLADLPDPNDAAGLAERLIDTLTVPAEVQGHEVSVAASIGIALFPGDGADASTLLAHADAAMYHAKRLSQTHRVSFFEPSMNEDALEQLQLLQDLRLALPRNQLELHYQPKFVAPAGPVVGAEALLRWNHPTRGVIGPTVFIPIAERTGLIFSIGAWVLDEACRQMRQWRDMGHADWTVAVNLSSLQFSQPDLIDSIRATLARHDLPPRCLAIEITESTAMRDAEASLTVLRELAELGVSISIDDFGTGYSSLLYLKRLPATELKIDRGFVNQLEHDNEDAAIVSAIIALGQKLNLKIVAEGVETLAQQSFLTEMGCDSLQGFLLGRPLPAAEFLAHTLQPQLA,failed
3,MIVVTGATGNIGRPLTRALAEAGEQVTAVSRHPAAVPDGVRHLVADLAEPAGLRPALTGAKSLFLLLSGDLHALGANPADLIGEAARSGVRRVVLLSTLGVVTRPFGATRIAMRELEDTLRESGLEWAVLRPGGFASNALWWAESVRARRVVAAPFGDVGVPVVDPADIAAVAAACLLEDRHTGGAYELTGPEVITPRGQTEAIAAALGAPVAFHELTREEARTAMARSMPAELADDTLDILGNPSPAELRVSPDIERVLGRAPRPFADWAARNADAFR,failed
4,MWNKLNKSMMFCQMMFGLSFYGVMVILTRFFLEELNYSEADTMMVVGAFSSIGPLFAIAGGFIADKFLGAYRSLTISYFGFATGYALLVLGSYTTNVPMALCGIALASYGRGLMSPSYPSLYKRTFDTQEHFENCYPVNYSVNNVGALLGQYLFPMFVLVLGFHGSFLLSCVLALLAFATLVIFRKPLLTVGAHIDQKPVSMQNWISFLITSVAMIALVFFMFSNMDIGQNIVYGIGLAAIGYFVILMLKSKKSDALKMGTILIMTALTTAFFVYYGQMMTSMTMVTINTMRGDLFDLIPIAPEASMAMNPLWCIVAGPVIAMIFSALEKRDIHFSTATKIGFAFILTAIAFGILTMAVMGVGEDAIIRPEVFLLIHFFQAFAEVIVGSLVVAFILSVAPKHIEGFSVSLFSVAMALSGIIGAVFSTSIAQEKGHVITQEFVQTVYGSYFQLLTVLAVVMVAIAFIASFIIRKMLESSKQAEEVELKEQKA,failed
5,MRNETGGTMVVDLQTDPYNNIHSRHNLSYDLSEGPKPRPKFGNISKTDHDEIFPPDDPIIINSNVTHQRFSSVSASTMSSGPASGEGSPCVMSPWARVSPPWGADFNEDNVLETNGLIGSIVRKEGHIYSLAASGDLLYTGSDSKNIRVWKNLKEHAGFKSSSGLIKAIVIFGDRIFTGHQDGKIRIWKVSKRKPGKHKRVGTLPTFKSMVKSSVNPKHFMEVRRNRNSVKTKHNDAVSSLSLDVELGLLYSSSWDTTIKVWRIADSKCLESIHAHDDAINSVMSGFDDLVFTGSADGTVKVWKRELQGKGTKHTLAQVLLKQENAVTALAVKSQSSIVYCGSSDGLVNYWERSKRSFTGGILKGHKSAVLCLGIAGNLLLSGSADKNICVWRRDPSDKSHQCLSVLTGHMGPVKCLAVEEERACHQGAKASVAEGDRKWIIYSGSLDKSVKVWRVSERMATWKEMDEPAASSERKSSSSPHEGSGAWSSRNVEK,failed
6,MTRTRVIAALVMAPVAMCSILFLPTAWLASLTAIIFLWGLWEWMKLSQVEDTLVRTVLLTLNLLLMVLLVWVSAHSLVLFQIATLIGIAWWILALLWLRFLGFCADPNQRTAKIVKVTAGTLAVIPAWSALVLLHSGDKPGSTFPESLHAHLWLLTAQIMIWAADSGAYFSGRLFGKHKLAPQISPNKTVEGLLGGILTGLAVAAGFGLLNGVTMAQFPSLLLVSFVAILASVIGDLFESLLKRHAGIKDSGSMIPGHGGVLDRIDSTLAALPVFALGKDIFGF,failed
7,MKISPLCPSCLLGRVYYEAKLVTDDEDLISQCVDESLKILAENYSSAPINAHLATRIHRRVYEILGVEDPYAEVKARANEVARQVLPLAKEIVEGSDDPFKTAVIVSIVGNNFDYGVQGHKVVEEEFRDFLKRKVQEGLKINDTERIKELSSGKVVYLTDNAGEIFFDTLLMKEIKRRCEKLTAVVRGRPIISDATIEDARLARVDKIADELLTNGKGAIGIIMDELPDETRKALEEADLIVAKGMANYECLSDGSLKPIAFLLTAKCEPVARDIGVNVGDMVAKVVE,not failed
8,MQDHIISFTAGILSVLSPCILPVIPVIFSESLIGNRKERFLFLSGFSSLFLFTIILTAIFTAAVNYYLLYLRVPASIMLIIMGLLVLSEKPLISIRTPPAENHVLMGLLTAIAWTPCYSPYLIGVIAYSAYTGIPGALVNMALYTLGLTITLIAVTLLAEPVLRRLLRGSRDIRRASGVLIVVAGIYMLYQLIPLP,failed
9,IDRSTHFALRYRTLCHQQAQFKSPLRGLRGTRASLIPHQLHIAAEVGNRVNPRVLLADEVGLGKTIEAGMILQNQLFAEKVQRVLIIVPETLQHQWLVEMLRRFNLHFALFDEERCNDFDLDAVNPFTTESLIICSLNWLETHPNRVELVLNAQFDCLIVDEAHHLVWSETSPSTAYLLVEQLARIIPSVLLLTATPE,failed
10,MTEDQVEILEYNFNKVNKHPDPTTLCLIAAEAGLTEEQTQKWFKQRLAEWRRSEGLPSECRSVTD,not failed
11,IRQRKRAERALNDQLEFMRVLIDGTPNPIYVRDKEGRMLLCNDAYLDTFGVTADAVLGKTIPEANVVGDPALAREMHEFLLTRMAAEREPRFEDRDVTLHGRTRHVYQWTVPYGDSLGELKGIIGGWIDIT,failed
12,MEQNSGTSSASGRALFPLYAITFIGTLGFGIILTFLVFLVTDYGGNALVYGILASTYPAFQLIGAPVLGRWSDLYGRKKILLLSQIGTMLAWIIFFAALFFPVIPLIEVRSDLLGTFTITLPLLILFLARALDGATGGNVSVANAYLADLTSEEERNKNYGRMSVASNLGYVFGPAIAGVLGTTAYGEILPVSAALVISIIGTLIVLFLLPDSRPCAIEEYPESTGIRKILGQEQKECYQVEAGSKITFREVFKLEYIPFMLVVYFLIFLGFNIYYTAFPIFAVVALEWSPAELGIYFSVISALMAFVQGPVLAKLARRYRESIMVVGGGFILGLQFILIVSGDYLLLYLAAVFFAFGNGIMWPSILSILSKFAGKKYQGSVQGFAMSASSLASIIGLLAGGFLYTQFGVIAFLIAAAIIYLVVFLSFRLLRIEKEKLIETEAAKTPV,failed
13,MVKKIGLSIMLLFFFLIIALPIYAWKIEPNLVHVNQVTLGKKNQREPLNVVQLSDIQVSEFYETKRLDKVIKKVNREKPDIIVFTGDLFDNYAKNPQQKEPMIEKLKQLQATIGKYAVWGNHDYGGGASAVYDEVMEASGFTVMKNQGETVTLADGRRLFIGGLDDSLLGNPSVSETLSYRETYDYALLMTHEPDVADAFVGTGTQLVLAGHSHGGQIWIPFYPITNVLAEKYTRGLYQLDQETQLYVNTGLGTTAIHARFGVIPEITHFTIYI,failed
14,MEYHLQTPLKFEDIEKLNAGDIVYISGEILTARDEAHARILEMEERGEELPFSLEGAVIYHCGPLMQQTESGWKVISAGPTTSGRMSKMTPPLLKTHKVRAIIGKGGMKNVADSLKSCCVYLAYTGGCAALAAELIKDVKTVHWPDLGMPEAVWILRVEKFGPLIVGIDAKGKDIFSEVREKAEKALEELQK,failed
15,MNAPLLTQDTKRTLAWIAVAVAFLALLKLLAPTLTPFVFAGILSYILHPGVEWLQRHRVPRVLGVFLMILLLTVVAVALMLLILAVLQREIPAIREQLPGMLSKLNAAVTPRLAEMGVHVRFDFPGLRKLLTEQLAASPEDVMSTALNYLRVSGSAAVQVLGIVFLVPIVMFYLLMDWNMLIRRLEGAVPRRWISKTRELAAETDGLLSQYLRGQIIVMLVLAAYYSAGLALAGFDVALPIGIFTGLAVFIPYIGFGIGLILAILSALLQFGNLYGLLAVAVVYGVGQVLEGFYLTPRLVGERIGLHPLAVILALLAFGQLFGFFGILLALPISAVLLVGLRQIRQLYLGSKLYRD,failed
16,MVSRLEHPAGGYKKVFESCEELAEPIPAHVSGKIPAWLSGSLLRMGPGLFEIGDEPFNHLFDGQALIHKFDLKDGRVTYHRKFIRTDAYVRAMTEKRVVITELGTAAYPDPCKNIFSRFFTYFQGTEVTDNCSVNIYPIGEDFYACTETNFITKVNPDTLETIKKVDLCNYLSVNGLTAHPHIEADGTVYNIGNCFGKNMSLAYNIVKIPPLQEEKSDPLAMSKVLVQFPSSERFKPSYVHSFGMTENHFVFVETPVKINLLKFLTSWSIRGSNYMDCFESNDRMGTWFHLAAKNPGKYINNPSQ,failed
17,MFGFFSPAPAIPRLPKDKVSSAYKAYRIRMFLMIFIGYTGYYLVRKNFAVASPYLIDNYGFSKTQIGLISMGLAVSYGLSKFILGNLSDKSNVKKFICFGLIASSVLSVLMGFARTVPIFLILMVFNGFFQGMGAPPCSIVLGKWFSQKERGLKMGIWNTSHNIGGGLIAPIATLCLLVFGQNHFQSIFFVPAIICTIVALFCYVIGADTPASVGLPPVEEYRNDYPEVKAEVNPTTLSSKEIMVKYVLKNKYVWYLALANIFVYLIRQGVVNWIPIYLKESKGFSAANANWAMFLFEYAAIPASILLGWLSDVVFKGKRAPLSILCMIGVIFATVAYWQTSSTLVTMISVAFIGCFIYGPQLLIGMNLIDVVPNFAVGSATGFSGLCGYLLGEFMADFVLGMIADSFGWNGAFIFIIVGAFIALLLLALTLKIKKNPQVEDKIA,failed
18,MPDWVTGTWLLALDWAIRLAALLWIPARTTPGAARSWLLLIGFVPVVGLPLYLLFGHPWLSRLRVERQATASQVIREQQLPLHALRWMPQADTSSAEVVPLIEREGDFMPTLGNAVELLDDYAQSLQALIAAIDAADKRVHLLYYLMFDDAVGEAVVVALERASARGVRCRVLLDAVGAKRGLRRYRKRLQDGGVQVLAVLPGGLRWRRSGRMDLRNHRKIAVLDNRVAFVGSQNLAEAGFIDGVPNRELVARVRGPVVNHLEAVFASDWFTETGERLDVWPDAPVCEANIATQLLPSGPAYPFENARDAINAVIHLARRKVVLVTPYFVPDEALLSALRIAPVSGVDVQLILSEHNNQRLAAWAQEAYFEELLRCGVKIALYRPHFLHAKHLSMDEDIALVGSINLDIRSFALNAEIGMLCYDTGVVQRLREIEQDYLANARQLTLEQWRRRPAWRRSREGIARLADALM,failed
19,MSNNEPSSLKQSIKLAWPISLQSILVTMLGMSDIMMVGHLGDTAVASVGLGNRIQFVFLIILAGLASGVGTLSAQHFGAGQIGVIRQIIVKTLVIAAGILLPILLITFLFAGNIMGIATTDPSVINTGTSYLWLTMPSLIFVVVVMIFENALRGLGQVIFPMFISIIAIITNIILNYWLIKGGLGIEPMGVIGAALATLLARALHALLILTYLAKVKHSIFPTTFFCADFYNKQAWTKLLTLVWPMMLSFGVWSLGTFVYQLIYGRIGTQELAVMSLLAPIEGLLVSFFFGFASACAILVGQRLGKNEFSNAWSLAKNYAISAPIITFLLALILLQYQYLVFMPFSNLSSETITLSQEILVLICFGTCLKVFNMTIAMGILRAGGDNKYCMFIDISGMWIISIPLTFMAAFYFMLPLYWVALIAYSEEIIKAVMFIFRMKTRHWLKNLTAESMA,failed
20,MRELTSNEMNNVSGGDLASRLEASIVGSVAGFFAGSIWGGTRGGDGGGILGVGSIGQGVGMIYGGIAGAIGGAIGAFVIDKTLTYTYTTGFMNSLFSGTFAK,failed
